Laboratory results: US20120277144

Biological target: cdc42, P60953
Sequence (P60953 1-188): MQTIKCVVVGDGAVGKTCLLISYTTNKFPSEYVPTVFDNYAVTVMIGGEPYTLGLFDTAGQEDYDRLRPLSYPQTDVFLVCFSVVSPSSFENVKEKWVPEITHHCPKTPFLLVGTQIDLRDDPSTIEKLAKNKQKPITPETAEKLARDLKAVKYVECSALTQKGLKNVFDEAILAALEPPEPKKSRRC

B1: FYVE, RhoGEF and PH domain-containing 5 (FGD5) (protein)
chain: MFRGPKPPIAPKPRLTAPNEWRASVYLNDSLNKCSNGRLPCVDRGLDEGPRSIPKCSESETDEDYIVVPRVPLREDEPKDEGSVGNKALVSPESSAEEEEEREEGGEACGLEGTGAGEDSVAPAAPGAGALSREGEEGTDLALEDEGEGCADEPGTLEQVSRSEEEEKLVQPHRECSLEDSGPWAGEGVFQSDLLLPHIHGEDQEPPDTPGEAEEDDEEGCASTDPAGADEGSGPDRPTEDMGQDAEDTSEEPPEKEELAGVQEAETATDCPEVLEEGCEEATGVTGGEQVDLSEPPDHEKKTNQEVAAATLEDHAQDESAEESCQIVPFENDCMEDFVTSLTGSPYEFFPTESTSFCSESCSPLSESAKGLESEQAPKLGLRAEENPMVGALCGQCGSLQGGAAEGPAAPDVVVVLEEEALDDALANPYVMGVGLPGQAAPGEGGQAASDALGGYGSKEELNCEAEGGLVPADRKNTSTRVRPHSGKVAGYVPETVPEETGPEAGSSAPGIGGAAEEVGKTLLSLEGKPLEASRALPAKPRAFTLYPRSFSVEGREIPVSVYQEPEGSGLDDHRIKRKEDNLSLSCVIGSSGSFSQRNHLPSSGTSTPSSMVDIPPPFDLACITKKPITKSSPSLLIESDSPDKYKKKKSSFKRFLALTFKKKTENKLHVDVNVSSSRSSSESSYHGPSRILEVDRRSLSNSPQLKSRTGKLRASESPSSLIFYRDGKRKGVPFSRTVSRVESFEDRSRPPFLPLPLTKPRSISFPSADTSDYENIPAMNSDYENIQIPPRRPARAGAFTKLFEDQSRALSTANENDGYVDMSSFNAFESKQQSADQDAESAYTEPYKVCPISSAAPKEDLTSDEEQRSSEEEDSASRDPSVTHKVEGQSRALVIAQELLSSEKAYVEMLQHLNLDFHGAVMRALDDMDHEGRDTLAREELRQGLSELPAIHDLHQGILEELEERLSNWESQQKVADVFLAREQGFDHHATHILQFDRYLGLLSENCLHSPRLAAAVREFEQSVQGGSQTAKHRLLRVVQRLFQYQVLLTDYLNNLCPDSAEYDNTQGALSLISKVTDRANDSMEQGENLQKLVHIEHSVRGQGDLLQPGREFLKEGTLMKVTGKNRRPRHLFLMNDVLLYTYPQKDGKYRLKNTLAVANMKVSRPVMEKVPYALKIETSESCLMLSASSCAERDEWYGCLSRALPEDYKAQALAAFHHSVEIRERLGVSLGERPPTLVPVTHVMMCMNCGCDFSLTLRRHHCHACGKIVCRNCSRNKYPLKYLKDRMAKVCDGCFGELKKRGRAVPGLMRERPVSMSFPLSSPRFSGSAFSSVFQSINPSTFKKQKKVPSALTEVAASGEGSAISGYLSRCKRGKRHWKKLWFVIKGKVLYTYMASEDKVALESMPLLGFTIAPEKEEGSSEVGPIFHLYHKKTLFYSFKAEDTNSAQRWIEAMEDASVL
  GTP-cdc42 level in a GEF-activity assay (G-lisa, chemo-luminescent measurement of GTP-bound small G-proteins in lysates of Sham Ad or Ad-FGD5 transfected HUVECs): cdc42-FGD5 binding led to specific activation of cdc42 in a GEF-activity assay
